In US20170058015A1 (ALBERT EINSTEIN COLLEGE OF MEDICINE, published 2017):
Each block holds one molecule with its values, some of them ahead of it.

How the values were obtained:
[1] = target: 8.3 T cell receptor on CD8+ T cells of 8.3 TCR transgenic NOD mice (mouse (NOD)); test: cell-based or functional assay
[2] = target: T1, synTac 4-1BBL trimer (synTac 40+51; 4-1BBL synTac co-expressed with free 4-1BBL) (murine, UniProt P41273 50-254 (human entry), Interchain disulfide between linker Cys (GCGAS) and H-2Kd Cys84. Fc hinge disulfides join two synTac units. Two free 4-1BBL chains join each synTac-borne 4-1BBL non-covalently.); test: flow cytometry, Protein A microbeads coated with 4-1BB-Fc; detection antibody to the synTac heavy chain isotype
T1 construct: also called Native trimer; trimeric syntac-41BBL

- IFNγ secretion by anti-CD3 stimulated CD8+ 8.3 T cells (suppression) [1]: 100 fold
Molecule: synTac IGRP-PD-L1 (light chain version) (from UniProt Q9Z186 206-214; P01902 22-305) (peptide-MHC)

- binding result [2]: binds
B1: recombinant mouse 4-1BB-Fc fusion protein (Fc fusion, UniProt P20334 24-187, looked up)
chain: VQNSCDNCQPGTFCRKYNPVCKSCPPSTFSSIGGQPNCNICRVCAGYFRFKKFCSSTHNAECECIEGFHCLGPQCTRCEKDCRPGQELTKQGCKTCSLGTFNDQNGTGVCRPWTNCSLDGRSVLKTGTTEKDVVCGPPVVSFSPSTTISVTPEGGPGGHSLQVL
notes: From commercial sources; coated on Protein A microbeads; also called murine 4-1BB; murine receptor; not shown: Fc of the commercial fusion protein
